Measurements: patent publication US20230406950A1 (LYVGEN BIOPHARMA, published 2023)
Where two headings read alike, the source gives them in different places.

T1: human OX40 expressed on CHO cells (human, UniProt P43489 29-277)
T1 construct: whole, on cells
T1 sequence (looked up): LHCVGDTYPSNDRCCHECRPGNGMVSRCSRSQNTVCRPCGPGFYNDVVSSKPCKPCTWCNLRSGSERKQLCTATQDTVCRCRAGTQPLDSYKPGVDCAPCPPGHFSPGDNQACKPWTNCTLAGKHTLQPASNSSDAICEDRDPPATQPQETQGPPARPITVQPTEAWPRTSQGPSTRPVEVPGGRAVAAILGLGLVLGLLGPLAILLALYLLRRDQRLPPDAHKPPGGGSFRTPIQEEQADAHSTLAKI

B1: Ly768 (bispecific antibody, human IgG1, kappa)
heavy: EVQLVQSGAEVKKPGASVKVSCKASGYTFTDSYMSWVRQAPGQGLEWIGDMYPDNGDSSYNQKFRERVTITRDTSTSTAYLELSSLRSEDTAVYYCVLAPRWYFSVWGQGTLVTVSSASTKGPSVFPLAPSSKSTSGGTAALGCLVKDYFPEPVTVSWNSGALTSGVHTFPAVLQSSGLYSLSSVVTVPSSSLGTQTYICNVNHKPSNTKVDKKVEPKSCDKTHTCPPCPAPELLGPSVFLFPPKPKDTLMISRTPEVTCVVVDVSHEDPEVKFNWYVDGVEVHNAKTKPREEQYNSTYRVVSVLTVLHQDWLNGKEYKCKVSNKALPAPIEKTISKAKGQPREPQVYTLPPSREEMTKNQVSLTCLVKGFYPSDIAVEWESNGQPENNYKTTPPVLDSDGSFFLYSKLTVDKSRWQQGNVFSCSVMHEALHNHYTQKSLSLSPGK
light: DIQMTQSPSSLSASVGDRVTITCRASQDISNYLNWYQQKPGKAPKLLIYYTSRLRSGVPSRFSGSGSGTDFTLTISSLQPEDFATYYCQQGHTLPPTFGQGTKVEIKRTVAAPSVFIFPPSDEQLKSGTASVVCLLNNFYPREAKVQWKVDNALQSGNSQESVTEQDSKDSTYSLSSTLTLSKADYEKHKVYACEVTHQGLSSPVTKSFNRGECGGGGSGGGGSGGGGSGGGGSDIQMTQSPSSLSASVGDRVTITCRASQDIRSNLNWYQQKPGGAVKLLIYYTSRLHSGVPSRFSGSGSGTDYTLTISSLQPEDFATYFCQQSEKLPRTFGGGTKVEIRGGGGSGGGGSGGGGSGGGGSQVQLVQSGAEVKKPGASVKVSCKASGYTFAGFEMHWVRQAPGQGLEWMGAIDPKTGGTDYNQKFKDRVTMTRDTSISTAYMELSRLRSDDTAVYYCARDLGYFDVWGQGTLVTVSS
notes: Anti-OX40/CD137: Ly598-derived heavy chain
B2: Ly769 (bispecific antibody, human IgG1, kappa)
heavy: B1 heavy
light: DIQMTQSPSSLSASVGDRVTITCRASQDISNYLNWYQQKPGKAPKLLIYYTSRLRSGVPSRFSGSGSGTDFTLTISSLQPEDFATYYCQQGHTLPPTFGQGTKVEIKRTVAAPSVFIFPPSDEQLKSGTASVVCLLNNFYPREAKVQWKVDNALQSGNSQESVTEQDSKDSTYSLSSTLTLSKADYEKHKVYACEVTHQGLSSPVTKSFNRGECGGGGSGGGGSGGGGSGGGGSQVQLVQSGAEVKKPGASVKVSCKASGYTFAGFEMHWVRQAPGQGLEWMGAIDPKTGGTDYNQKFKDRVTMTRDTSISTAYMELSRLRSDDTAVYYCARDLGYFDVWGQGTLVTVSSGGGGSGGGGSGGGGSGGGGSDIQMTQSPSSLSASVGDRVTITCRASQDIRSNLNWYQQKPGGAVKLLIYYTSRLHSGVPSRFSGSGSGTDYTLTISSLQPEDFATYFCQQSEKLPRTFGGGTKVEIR
notes: as for B1
B3: Ly767 (bispecific antibody, human IgG1, kappa)
heavy: EVQLVQSGAEVKKPGASVKVSCKASGYTFTDSYMSWVRQAPGQGLEWIGDMYPDNGDSSYNQKFRERVTITRDTSTSTAYLELSSLRSEDTAVYYCVLAPRWYFSVWGQGTLVTVSSASTKGPSVFPLAPSSKSTSGGTAALGCLVKDYFPEPVTVSWNSGALTSGVHTFPAVLQSSGLYSLSSVVTVPSSSLGTQTYICNVNHKPSNTKVDKKVEPKSCDKTHTCPPCPAPELLGPSVFLFPPKPKDTLMISRTPEVTCVVVDVSHEDPEVKFNWYVDGVEVHNAKTKPREEQYNSTYRVVSVLTVLHQDWLNGKEYKCKVSNKALPAPIEKTISKAKGQPREPQVYTLPPSREEMTKNQVSLTCLVKGFYPSDIAVEWESNGQPENNYKTTPPVLDSDGSFFLYSKLTVDKSRWQQGNVFSCSVMHEALHNHYTQKSLSLSPGGGGGSGGGGSGGGGSGGGGSQVQLVQSGAEVKKPGASVKVSCKASGYTFAGFEMHWVRQAPGQGLEWMGAIDPKTGGTDYNQKFKDRVTMTRDTSISTAYMELSRLRSDDTAVYYCARDLGYFDVWGQGTLVTVSSGGGGSGGGGSGGGGSGGGGSDIQMTQSPSSLSASVGDRVTITCRASQDIRSNLNWYQQKPGGAVKLLIYYTSRLHSGVPSRFSGSGSGTDYTLTISSLQPEDFATYFCQQSEKLPRTFGGGTKVEIR
light: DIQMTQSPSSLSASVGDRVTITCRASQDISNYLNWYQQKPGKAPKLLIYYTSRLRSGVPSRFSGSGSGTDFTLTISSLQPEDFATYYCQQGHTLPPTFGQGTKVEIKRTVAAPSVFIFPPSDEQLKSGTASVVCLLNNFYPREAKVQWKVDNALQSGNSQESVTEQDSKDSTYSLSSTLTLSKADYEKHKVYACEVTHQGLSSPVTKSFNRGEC
notes: Anti-OX40/CD137: Ly598-derived heavy chain fused to Ly1630 scFv (VH-VL); Ly598 light chain
B4: Ly766 (bispecific antibody, human IgG1, kappa)
heavy: EVQLVQSGAEVKKPGASVKVSCKASGYTFTDSYMSWVRQAPGQGLEWIGDMYPDNGDSSYNQKFRERVTITRDTSTSTAYLELSSLRSEDTAVYYCVLAPRWYFSVWGQGTLVTVSSASTKGPSVFPLAPSSKSTSGGTAALGCLVKDYFPEPVTVSWNSGALTSGVHTFPAVLQSSGLYSLSSVVTVPSSSLGTQTYICNVNHKPSNTKVDKKVEPKSCDKTHTCPPCPAPELLGPSVFLFPPKPKDTLMISRTPEVTCVVVDVSHEDPEVKFNWYVDGVEVHNAKTKPREEQYNSTYRVVSVLTVLHQDWLNGKEYKCKVSNKALPAPIEKTISKAKGQPREPQVYTLPPSREEMTKNQVSLTCLVKGFYPSDIAVEWESNGQPENNYKTTPPVLDSDGSFFLYSKLTVDKSRWQQGNVFSCSVMHEALHNHYTQKSLSLSPGGGGGSGGGGSGGGGSGGGGSDIQMTQSPSSLSASVGDRVTITCRASQDIRSNLNWYQQKPGGAVKLLIYYTSRLHSGVPSRFSGSGSGTDYTLTISSLQPEDFATYFCQQSEKLPRTFGGGTKVEIRGGGGSGGGGSGGGGSGGGGSQVQLVQSGAEVKKPGASVKVSCKASGYTFAGFEMHWVRQAPGQGLEWMGAIDPKTGGTDYNQKFKDRVTMTRDTSISTAYMELSRLRSDDTAVYYCARDLGYFDVWGQGTLVTVSS
light: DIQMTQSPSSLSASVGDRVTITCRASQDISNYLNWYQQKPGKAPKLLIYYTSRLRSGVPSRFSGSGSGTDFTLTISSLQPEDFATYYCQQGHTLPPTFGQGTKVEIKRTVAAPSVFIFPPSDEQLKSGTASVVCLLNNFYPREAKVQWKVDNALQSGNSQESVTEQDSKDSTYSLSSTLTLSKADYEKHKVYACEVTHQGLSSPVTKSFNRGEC
notes: Anti-OX40/CD137: Ly598-derived heavy chain fused to Ly1630 scFv (VL-VH); Ly598 light chain
B5: Ly756 (bispecific antibody, human IgG1, kappa)
heavy: QVQLVQSGAEVKKPGASVKVSCKASGYTFAGFEMHWVRQAPGQGLEWMGAIDPKTGGTDYNQKFKDRVTMTRDTSISTAYMELSRLRSDDTAVYYCARDLGYFDVWGQGTLVTVSSASTKGPSVFPLAPSSKSTSGGTAALGCLVKDYFPEPVTVSWNSGALTSGVHTFPAVLQSSGLYSLSSVVTVPSSSLGTQTYICNVNHKPSNTKVDKKVEPKSCDKTHTCPPCPAPELLGPSVFLFPPKPKDTLMISRTPEVTCVVVDVSHEDPEVKFNWYVDGVEVHNAKTKPREEQYNSTYRVVSVLTVLHQDWLNGKEYKCKVSNKALPAPIEKTISKAKGQPREPQVYTLPPSREEMTKNQVSLTCLVKGFYPSDIAVEWESNGQPENNYKTTPPVLDSDGSFFLYSKLTVDKSRWQQGNVFSCSVMHEALHNHYTQKSLSLSPGK
light: DIQMTQSPSSLSASVGDRVTITCRASQDIRSNLNWYQQKPGGAVKLLIYYTSRLHSGVPSRFSGSGSGTDYTLTISSLQPEDFATYFCQQSEKLPRTFGGGTKVEIRRTVAAPSVFIFPPSDEQLKSGTASVVCLLNNFYPREAKVQWKVDNALQSGNSQESVTEQDSKDSTYSLSSTLTLSKADYEKHKVYACEVTHQGLSSPVTKSFNRGECGGGGSGGGGSGGGGSGGGGSEIVLTQSPATLSLSPGERATLSCRASKSVRTGMHWYQQKPGQAPRLLIYGASNLESGIPARFSGSGSGTDFTLTISSLEPEDFAVYYCQQSWNHFTFGQGTKLEIKGGGGSGGGGSGGGGSGGGGSQVQLQESGPGLVKPSETLSLTCTVSGFSLTSYNVHWIRQPPGKGLEWIGVIWSGVRTDYNSVLKPRVTISVDTSKNQFSLKLSSVTAADTAVYYCARGTYDDNYHDVMDAWGQGTLVTVSS
notes: Anti-GITR/CD137: Ly1630 heavy chain; Ly1630 light chain fused to TM685 scFv (VL-VH)
B6: Ly765 (bispecific antibody, human IgG1, kappa)
heavy: B5 heavy
light: DIQMTQSPSSLSASVGDRVTITCRASQDIRSNLNWYQQKPGGAVKLLIYYTSRLHSGVPSRFSGSGSGTDYTLTISSLQPEDFATYFCQQSEKLPRTFGGGTKVEIRRTVAAPSVFIFPPSDEQLKSGTASVVCLLNNFYPREAKVQWKVDNALQSGNSQESVTEQDSKDSTYSLSSTLTLSKADYEKHKVYACEVTHQGLSSPVTKSFNRGECGGGGSGGGGSGGGGSGGGGSEVQLVQSGAEVKKPGASVKVSCKASGYTFTDSYMSWVRQAPGQGLEWIGDMYPDNGDSSYNQKFRERVTITRDTSTSTAYLELSSLRSEDTAVYYCVLAPRWYFSVWGQGTLVTVSSGGGGSGGGGSGGGGSGGGGSDIQMTQSPSSLSASVGDRVTITCRASQDISNYLNWYQQKPGKAPKLLIYYTSRLRSGVPSRFSGSGSGTDFTLTISSLQPEDFATYYCQQGHTLPPTFGQGTKVEIK
notes: Anti-OX40/CD137: Ly1630 heavy chain
B7: Ly764 (bispecific antibody, human IgG1, kappa)
heavy: B5 heavy
light: DIQMTQSPSSLSASVGDRVTITCRASQDIRSNLNWYQQKPGGAVKLLIYYTSRLHSGVPSRFSGSGSGTDYTLTISSLQPEDFATYFCQQSEKLPRTFGGGTKVEIRRTVAAPSVFIFPPSDEQLKSGTASVVCLLNNFYPREAKVQWKVDNALQSGNSQESVTEQDSKDSTYSLSSTLTLSKADYEKHKVYACEVTHQGLSSPVTKSFNRGECGGGGSGGGGSGGGGSGGGGSDIQMTQSPSSLSASVGDRVTITCRASQDISNYLNWYQQKPGKAPKLLIYYTSRLRSGVPSRFSGSGSGTDFTLTISSLQPEDFATYYCQQGHTLPPTFGQGTKVEIKGGGGSGGGGSGGGGSGGGGSEVQLVQSGAEVKKPGASVKVSCKASGYTFTDSYMSWVRQAPGQGLEWIGDMYPDNGDSSYNQKFRERVTITRDTSTSTAYLELSSLRSEDTAVYYCVLAPRWYFSVWGQGTLVTVSS
notes: as for B6

Key:
[1] = biological target: T1, human OX40 expressed on CHO cells; experiment: FACS on CHO cells expressing human OX40 (MFI)
Description: (§1) Anti-OX40/CD137 bi-specific antibodies were analyzed by FACS for their binding properties to human OX40 and/or human CD137 expressed on CHO cells. Briefly, cultured cells were harvested, counted and cell viability was evaluated using the Trypan Blue exclusion method. Viable cells were then adjusted to 2×10⁶ cells per mL in PBS containing 2% BSA. 100 μL of this cell suspension were further aliquoted per well into a V-bottom 96-well plate. […] After incubation for 2 hours at 4° C., cells were centrifuged (3 min, 1000×g), washed with 250 μL/well BSA-containing FACS Stain Buffer, resuspended and incubated for an additional 1 hour at 4° C. with 100 μL/well fluorochrome-conjugated anti-IgG antibody for detection of the bisepecific antibody. Cells were then washed with 250 μL/well BSA-containing FACS Stain Buffer, resuspended in 100 μL/well FACS Stain Buffer, acquired and analyzed using a FACS machine. Binding of the bispecific antibodies to human OX40 or human CD137 expressing CHO cells were evaluated and the mean fluorescence intensity is plotted in histograms or dot plots.

[2] = biological target: T2, human CD137 expressed on cells (human, UniProt Q07011 24-255); experiment: FACS on CHO cells expressing human CD137 (MFI)
T2 construct: whole, on cells; also called 4-1BB; TNFRSF9
T2 sequence (Q07011 24-255): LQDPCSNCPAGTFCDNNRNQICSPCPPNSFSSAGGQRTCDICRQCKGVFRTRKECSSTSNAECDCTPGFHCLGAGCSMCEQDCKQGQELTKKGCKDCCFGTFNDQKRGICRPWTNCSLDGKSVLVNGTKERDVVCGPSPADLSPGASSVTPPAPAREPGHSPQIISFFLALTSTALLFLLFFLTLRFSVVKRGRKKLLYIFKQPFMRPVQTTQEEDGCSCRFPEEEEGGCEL
Description: as §1

[3] = biological target: T2, human CD137 expressed on cells; experiment: FACS on CHO cells expressing human CD137 (MFI); remark: listed apart in the source
Description: as §1, with “Anti-GITR/CD137” for “Anti-OX40/CD137”, “GITR” for “OX40”, “1000× g),” for “1000×g),”

[4] = biological target: T2, human CD137 expressed on cells; experiment: FACS on CHO cells expressing human CD137 (MFI); remark: listed apart in the source
Description: as §1

| Binder | binding result [1] | EC50 (read off the curve) [2] | EC50 (read off the curve) [1] | EC50 (read off the curve) [3] | EC50 (read off the curve) [4] |
| --- | --- | --- | --- | --- | --- |
| B1 | binds | ~0.3 µg/mL |  |  |  |
| B2 | binds | ~0.6 µg/mL |  |  |  |
| B3 |  | ~0.3 µg/mL | ~0.4 µg/mL |  |  |
| B4 |  | ~0.2 µg/mL | ~0.4 µg/mL |  |  |
| B5 |  |  |  | ~0.1 µg/mL |  |
| B6 | binds |  |  |  | ~0.2 µg/mL |
| B7 |  |  | ~0.9 µg/mL |  | ~0.2 µg/mL |
